Test results from patent US20240270846A1 (published 2024).

B1: GLS3000 H27dN one-arm antibody (H chain CE115HA000) (antibody, human IgG1, kappa, L234A L235A, N297A, name in Kabat numbering)
heavy: QVQLVESGGGVVQPGRSLRLSCAASGFTFSNAWMHWVRQAPGKGLEWVAQIKAKSNNYATYYAESVKGRFTISRDDSKNSLYLQMNSLKTEDTAVYYCRYVHYGAYYGVDAWGQGTTVTVSSASTKGPSVFPLAPSSKSTSGGTAALGCLVKDYFPEPVTVSWNSGALTSGVHTFPAVLQSSGLYSLSSVVTVPSSSLGTQTYICNVNHKPSNTKVDKKVEPKSCDKTHTCPPCPAPEAAGGPSVFLFPPKPKDTLMISRTPEVTCVVVDVSHEDPEVKFNWYVDGVEVHNAKTKPREEQYASTYRVVSVLTVLHQDWLNGKEYKCKVSNKALPAPIEKTISKAKGQPREPQVYTLPPSRCELTKNQVSLSCAVKGFYPSDIAVEWESNGQPENNYKTTPPVLDSDGSFFLVSKLTVDKSRWQQGNVFSCSVMHEALHNHYTQKSLSLSPDYKDDDDK
chain: EPKSSDKTHTCPPCPAPELLGGPSVFLFPPKPKDTLMISRTPEVTCVVVDVSHEDPEVKFNWYVDGVEVHNAKTKPREEQYNSTYRVVSVLTVLHQDWLNGKEYKCKVSNKALPAPIEKTISKAKGQPREPQVCTLPPSRDELTKNQVSLWCLVKGFYPSDIAVEWESNGQPENNYKTTPPVLDSDGSFFLYSKLTVDKSRWQQGNVFSCSVMHEALHNRYTQKSLSLSP
light: DIVMTQSPLSLPVTPGEPASISCRSSQSLVNSNRNTYLHWYQQKPGQAPRLLIYKVSNRFSGVPDRFSGSGSGTDFTLKISRVEAEDVGVYYCGQGTQVPYTFGQGTKLEIKRTVAAPSVFIFPPSDEQLKSGTASVVCLLNNFYPREAKVQWKVDNALQSGNSQESVTEQDSKDSTYSLSSTLTLSKADYEKHKVYACEVTHQGLSSPVTKSFNRGEC
notes: one-arm antibody
B2: GLS3000 H27dP one-arm antibody (H chain CE115HA000) (antibody, human IgG1, kappa, L234A L235A, N297A, name in Kabat numbering)
heavy: QVQLVESGGGVVQPGRSLRLSCAASGFTFSNAWMHWVRQAPGKGLEWVAQIKAKSNNYATYYAESVKGRFTISRDDSKNSLYLQMNSLKTEDTAVYYCRYVHYGAYYGVDAWGQGTTVTVSSASTKGPSVFPLAPSSKSTSGGTAALGCLVKDYFPEPVTVSWNSGALTSGVHTFPAVLQSSGLYSLSSVVTVPSSSLGTQTYICNVNHKPSNTKVDKKVEPKSCDKTHTCPPCPAPEAAGGPSVFLFPPKPKDTLMISRTPEVTCVVVDVSHEDPEVKFNWYVDGVEVHNAKTKPREEQYASTYRVVSVLTVLHQDWLNGKEYKCKVSNKALPAPIEKTISKAKGQPREPQVYTLPPSRCELTKNQVSLSCAVKGFYPSDIAVEWESNGQPENNYKTTPPVLDSDGSFFLVSKLTVDKSRWQQGNVFSCSVMHEALHNHYTQKSLSLSPDYKDDDDK
chain: EPKSSDKTHTCPPCPAPELLGGPSVFLFPPKPKDTLMISRTPEVTCVVVDVSHEDPEVKFNWYVDGVEVHNAKTKPREEQYNSTYRVVSVLTVLHQDWLNGKEYKCKVSNKALPAPIEKTISKAKGQPREPQVCTLPPSRDELTKNQVSLWCLVKGFYPSDIAVEWESNGQPENNYKTTPPVLDSDGSFFLYSKLTVDKSRWQQGNVFSCSVMHEALHNRYTQKSLSLSP
light: DIVMTQSPLSLPVTPGEPASISCRSSQSLVPSNRNTYLHWYQQKPGQAPRLLIYKVSNRFSGVPDRFSGSGSGTDFTLKISRVEAEDVGVYYCGQGTQVPYTFGQGTKLEIKRTVAAPSVFIFPPSDEQLKSGTASVVCLLNNFYPREAKVQWKVDNALQSGNSQESVTEQDSKDSTYSLSSTLTLSKADYEKHKVYACEVTHQGLSSPVTKSFNRGEC
notes: one-arm antibody

Biological target: T1, CD3 epsilon homodimer protein (UniProt P07766 23-126)
T1 construct: also called CD3 (CD3 epsilon)
Experiment: SPR, CD3e homodimer on chip;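 further: surface plasmon resonance at 25 degrees C, antibodies flowed as analyte over CD3 epsilon homodimer amine-coupled to a CM4 chip, running buffer HBS-EP+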
Method: An appropriate amount of CD3 epsilon homodimer protein was immobilized onto Sensor chip CM4 (GE Healthcare Japan Corp.) by the amine coupling method. Then, the antibody having an appropriate concentration was injected thereto as an analyte and allowed to interact with the CD3 epsilon homodimer protein on the sensor chip. Then, the sensor chip was regenerated by the injection of 10 mmol/L glycine-HCl (pH 1.5). The assay was conducted at 25 degrees C., and HBS-EP+(GE Healthcare Japan Corp.) was used as a running buffer. […] Each parameter was calculated using Biacore T200 Evaluation Software (GE Healthcare Japan Corp.).
Specifically, when the amount of the GLS3000-containing antibody bound was defined as X and the amount of the L chain one-amino acid altered form bound was defined as Y, a value of Z (ratio of amounts bound)=Y/X was used.

T1 sequence (P07766 23-126): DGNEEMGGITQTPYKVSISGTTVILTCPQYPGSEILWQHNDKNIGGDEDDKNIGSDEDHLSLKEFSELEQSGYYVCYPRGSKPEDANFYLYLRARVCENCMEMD

| Binder | ratio of amounts bound (altered form / unaltered GLS3000 antibody) |
| --- | --- |
| B1 | 0.3 |
| B2 | 0.24 |
